Several values for one entry are separate records, joined by “and”; a condition that tells them apart may be missing. Equal entries are not always repeated.
target: Biotin-labeled KRAS-G12D protein (UniProt P01116-2 1-169, limits assumed, biotin label (site not stated); loaded with BODIPY-GDP); assay: cell-based or functional assay

Substance | SOS assay EC50
cyclo(F-R-3Pal-cBuA~TyrOMe-Nle-NMeF-spiro54) (peptide) | 656 nM
cyclo(F-R-4F3Pal-cBuA-Phe2F-Nle-NMe3Pal-daMeC1-C1Ac) (peptide) | 1.26 nM
cyclo(NMeF-NMeNvaImid-Phe4cPyrr-Nle-Phe2F-Nle-NMe3Pal-amBCP) (peptide) | 3220 nM
cyclo(F-ArgMeMe-Phe4Gn-L-TyrOMe-Nle-NMeF-dC1-C1Ac) (peptide) | 1160 nM
cyclo(Phe4F-R-4Pal-L-TyrOMe-Nva-NMeF-Cysteamine-C1Ac) (peptide) | 3010 nM
cyclo(F-NMeR-3Pal-Nle-TyrOMe-Nle-NMeF-c3amCblc) (peptide) | 96.2 nM
cyclo(F-NMeNvalmid-3Pal-Nle-Phe2F-Nle-NMe3Pal-tamcPr) (peptide) | 272 nM
cyclo(NMeF-NMeNvaImid-3Pal-Nle-Phe2F-Nle-NMe3Pal-tamcPr) (peptide) | 7650 nM
cyclo(Phe4F-R-4Pal-L-TyrOMe-Nva-NMeF-dC6-C1Ac) (peptide) | 369 nM
cyclo(F-R~3Pal-cBuA-Phe26F2-Nle-NMe3Pal-aMeC1-C1Ac) (peptide) | 4.6 nM
cyclo(F-R-3Pal-cBuA-Pra-Nle-NMeF-aMeC1-C1Ac) (peptide) | 298 nM
cyclo(F-R-3Pal-cBuA-TyrOMe-HagNMeHag-daMeC-C1Ac) (peptide) | 238 nM
cyclo(F-R-Phe4Gnc2-Nle-TyrOMe-Nle-NMeF-c3amCblc) (peptide) | 15.6 nM
cyclo(Phe4F-R-LysN3-Nle-Y-Nle-NMeF-Cysteamine-C1Ac) (peptide) | 3530 nM
cyclo(F-Nva-Phe4Gn-L-TyrOMe-Nle-NMeF-dC1-C1Ac) (peptide) | 4320 nM
cyclo(F-R-Phe4Gn-Nle-TyrOMe-Nle-NMeF-acBu) (peptide) | 13.8 nM
cyclo(F-R-3Pal-Nle-Phe2F-Nle-NMe3Pal-aMeC-C1Ac) (peptide) | 370 nM
cyclo(F-R-4CF33Pal-cBuA-Phe2F-Nle-NMe3Pal-aMeC1-C1Ac) (peptide) | 1.59 nM
cyclo(F-R-Phe4cPyrr-Nle-TyrOMe-Nle-NMeF-c3amCblc) (peptide) | 35.3 nM
cyclo(F-NMeDabN3-3Pal-Nle-Phe2F-Nle-NMe3Pal-c3amCb1c) (peptide) | 753 nM
cyclo(F-R-Phe4Gn-Nle-TyrOMe-Nle-NMeF-cBuAc) (peptide) | 419 nM
cyclo(F-R-3Pal-Nle-TyrOMe-Nle-NMeF-13amCb1c) (peptide) | 186 nM
cyclo(F-R-3Pal-cBuA-TyrOMe-AheNMeAhe-aMeC-C1Ac) (peptide) | 900 nM
cyclo(F-R-d3Pal-cBuA-Phe2F-Nle-NMe3Pal-amBYA) (peptide) | 387 nM
cyclo(F-R-hK-Nle-Bip-hY-NMeF-Cysteamine-C1Ac) (peptide) | 4490 nM
cyclo(F-OmN3-3Pal-Nle-Phe2F-Nle-NMe3Pal-c3amCblc) (peptide) | 5590 nM
cyclo(Phe4F-R-4Pal-L-TyrOMe-Nva-NMeF-dC5-C1Ac) (peptide) | 70.2 nM

Now from value to substance:

SOS assay EC50 | Substance
3070 nM | cyclo(F-R-3Pal-Nle-PraMe-Nle-NMe3Pal-aMeC1-C1Ac) (peptide)
2650 nM | cyclo(INal-R-K-Nle-Phe3AcOH-Nle-NMeF-Cysteamine-C1Ac) (peptide)
2 nM | cyclo(F-R-3Pal-cBuA-Phe2F-Nle-NMeF-aMeC1-C1Ac) (peptide)
642 nM | cyclo(F-R-3Pal-Nle-I-Nle-NMe3Pal-aMeC1-C1Ac) (peptide)
432 nM | cyclo(F-MorNva-3Pal-cBuA-Phe2F-Nle-NMe3Pal-amBCP) (peptide)
5.47 nM | cyclo(F-R-3Pal-cBuA-TyrOMe-Nle-NMeF-amBCP) (peptide)
1460 nM | cyclo(NMeF-NMeNvalmid-3Pal-dNle-Phe2F-Nle-NMe3Pal-c3amCblc) (peptide)
3750 nM | cyclo(Phe3F-R-4Pal-L-TyrOMe-Nva-NMeF-dC1-C1Ac) (peptide)
575 nM | cyclo(1Nal-R~Phe4Gn-Nle-Y-Nle-NMeF-daMeC-C1Ac) (peptide)
7790 nM | cyclo(F-6Quin4NH2-Phe4Gn-L-TyrOMe-Nle-NMeF-C1-C1Ac) (peptide)
650 nM | cyclo(F-R-3Pal-cBuA-TyrOMe-AheNMeHag-aMeC-C1Ac) peak 2 (peptide)
949 nM | cyclo(F-R-3Pal-Nle-TyrOMe-Nle-NMeF-dbhcLeu) (peptide)
6820 nM | cyclo(F-R-d3Pal-cBuA-Phe2F-Nle-NMe3Pal-amOBCH) (peptide)
7030 nM | cyclo(1Nal-R-Phe4CH2NHAc-Nle-Y-Nle-NMeF-daMeC-C1Ac) (peptide)
9150 nM | cyclo(C1Ac-F-R-3Pal-cBuA-Hag-Nle-NMe3Pal-C) (peptide)
60.6 nM | cyclo(F-R-Phe4cMph-Nle-TyrOMe-Nle-NMeF-c3amCblc) (peptide)
728 nM | cyclo(F-R-3Pal-Nle-Phe2F-Nle-NMe3Pal-aMeC7-C1Ac) (peptide)
256 nM | cyclo(F-R-3Pal-Nle-TyrOMe-Nle-NMeF-cHxclacid4NH2) (peptide)

SOS assay EC50 | Substance
6680 nM | cyclo(Y-hS-3Pal-cBuA-Phe2F-Nle-NMe3Pal-daMeC1-C1Ac) (peptide)
7270 nM | cyclo(C1Ac-F-R-3Pal-cBuA-Ape-Nle-NMe3Pal-C) (peptide)
3.19 nM | cyclo(F-R-d3Pal-cBuA-Phe2F-Nle-NMe3Pal-amBCP) (peptide)
1140 nM | cyclo(F-R-d3Pal-cBuA-Phe2F-Nle-NMe3Pal-BCP) (peptide)
861 nM | cyclo(F-R-3Pal-cBuA-AbuF3-Nle-NMeF-aMeC1-C1Ac) (peptide)
329 nM | cyclo(F-R-3Pal-Nle-V-Nle-NMe3Pal-aMeC1-C1Ac) (peptide)
8470 nM | cyclo(NMeF-NMeDabN3-3Pal-Nle-Phe2F-Nle-NMe3Pal-c3amCblc) (peptide)
2.69 nM | cyclo(FLac-NMeA-PyrimAla-cPrA-4Pal2F-hL-NMeF-amBCP) (peptide)
2060 nM | cyclo(Phe4F-R-4Pal-hIle-TyrOMe-Nva-NMeF-dC-C1Ac) (peptide)
1.14 nM | cyclo(F-NH2IMNva-d3Pal-cBuA-Phe2F-Nle-NMe3Pal-amBCP) (peptide)
2130 nM | cyclo(TyrOMe-Orn~3Pal-cBuA-Phe2F-Nle-NMe3Pal-daMeC1-C1Ac) (peptide)
6390 nM | cyclo(F-R-3Pal-Nle-SerOMe-Nle-NMe3Pal-aMeC1-C1Ac) (peptide)
142 nM | cyclo(F-R-Phe4Gn-Nle-TyrOMe-Nle-NMeF-SamHex) (peptide)
659 nM | cyclo(Y-Orn-3Pal-cBuA-TyrOMe-Nle-NMe3Pal-daMeC1-C1Ac) (peptide)
1560 nM and 324 nM | cyclo(F-R-3Pal-cBuA-TyrOMe-AheNMeHag-aMeC-C1Ac) peak 1 (peptide)
1220 nM | cyclo(NMeF-NMeNvalmid-3Pal-Nle-Phe2F-Nle-NMe3Pal-c3amCblc) (peptide)
1060 nM | cyclo(Phe4NH2-Om-3Pal-cBuA-TyrOMe-Nle-NMe3Pal-daMeC1-C1Ac) (peptide)
1.35 nM | cyclo(F-R-3Pal-cBuA-Phe24F2-Nle-NMe3Pal-aMeC1-C1Ac) (peptide)
